Assay results taken from patent US20260103689.

Experiments:
[1] = test system: SB100X Q124C transposase Q124C (synthetic construct); assay: cell_activity; conditions: HepG2 colony-forming transposition; hyperactive at 500 and 2500 ng plasmid
[2] = test system: SB100X Sleeping Beauty transposase (synthetic construct); assay: cell_activity; conditions: HepG2 colony-forming transposition; integrates at TA

## SB transposon pT2/Puro (puro-tagged, terminal inverted repeats)
[1]
  transposition activity (colony formation, fold vs SB100X) (fold vs SB100X): 2
[2]
  transposition activity (colony formation, fold vs SB100X) (fold (reference)): 1
